The source of these data is PMC8988010 (The Journal of Biological Chemistry, 2021).

Data set [1] concerns the target HNF-1A DD-DBD R263C (Homo sapiens, UniProt P20823 1-279, R263C). The data set is described as follows: ITC. (In ITC the heat of successive injections is recorded.)
Data set [2] addresses HNF-1A DBD R263C (Homo sapiens, UniProt P20823 83-279, R263C). Briefly: ITC.
The target of data set [3] is HNF-1A DBD N266S (Homo sapiens, UniProt P20823 83-279, N266S). Briefly: ITC.
The target of data set [4] is HNF-1A DD-DBD N266S (Homo sapiens, UniProt P20823 1-279, N266S). Briefly: ITC.
Data set [5] deals with the molecule itself. Briefly: SEC-MALS.

B1: RA (rat albumin promoter oligonucleotide), unlabeled (dsDNA)
DNA 1: CTTGGTTAATAATTCACCAGA
DNA 2: TCTGGTGAATTATTAACCAAG
One may read the Kd as a measure of binding affinity in units of concentration. Low values mean tighter binding, high ones weaker binding. With B1, the dissociation constant (Kd) in data set [1] is 8000 ± 3000 nM; in data set [2], 2000 ± 140 nM; in data set [3], 570 ± 50 nM; in data set [4] it was 740 ± 110 nM.

B2: HNF-1A DD-DBD (hepatocyte nuclear factor 1A, residues 1-279, WT) (domain or fragment, human, UniProt P20823 1-279, looked up)
chain: MVSKLSQLQTELLAALLESGLSKEALIQALGEPGPYLLAGEGPLDKGESCGGGRGELAELPNGLGETRGSEDETDDDGEDFTPPILKELENLSPEEAAHQKAVVETLLQEDPWRVAKMVKSYLQQHNIPQREVVDTTGLNQSHLSQHLNKGTPMKTQKRAALYTWYVRKQREVAQQFTHAGQGGLIEEPTGDELPTKKGRRNRFKWGPASQQILFQAYERQKNPSKEERETLVEECNRAECIQRGVSPSQAQGLGSNLVTEVRVYNWFANRRKEEAFRH
In general, stoichiometry N refers to a count of units in the complex or per binding partner. On to B2, for which the “stoichiometry N” value in data set [5] amounted to 2.

B3: HNF-1A DD-DBD/R263C (residues 1-279, MODY3 variant p.Arg263Cys) (domain or fragment, human, UniProt P20823 1-279, looked up)
chain: MVSKLSQLQTELLAALLESGLSKEALIQALGEPGPYLLAGEGPLDKGESCGGGRGELAELPNGLGETRGSEDETDDDGEDFTPPILKELENLSPEEAAHQKAVVETLLQEDPWRVAKMVKSYLQQHNIPQREVVDTTGLNQSHLSQHLNKGTPMKTQKRAALYTWYVRKQREVAQQFTHAGQGGLIEEPTGDELPTKKGRRNRFKWGPASQQILFQAYERQKNPSKEERETLVEECNRAECIQRGVSPSQAQGLGSNLVTEVCVYNWFANRRKEEAFRH
B3: the “stoichiometry N” value in data set [5] is 2.

B4: HNF-1A DD-DBD/N266S (residues 1-279, variant p.Asn266Ser) (domain or fragment, human, UniProt P20823 1-279, looked up)
chain: MVSKLSQLQTELLAALLESGLSKEALIQALGEPGPYLLAGEGPLDKGESCGGGRGELAELPNGLGETRGSEDETDDDGEDFTPPILKELENLSPEEAAHQKAVVETLLQEDPWRVAKMVKSYLQQHNIPQREVVDTTGLNQSHLSQHLNKGTPMKTQKRAALYTWYVRKQREVAQQFTHAGQGGLIEEPTGDELPTKKGRRNRFKWGPASQQILFQAYERQKNPSKEERETLVEECNRAECIQRGVSPSQAQGLGSNLVTEVRVYSWFANRRKEEAFRH
For B4, the binding result in data set [5] is listed as “binds”.
